Assay results: paper PMC11544220

Target: Mycobacterium tuberculosis dUTPase lacking the mycobacteria-specific loop A133-S137 (MtDUT^Δloop) (Mycobacterium tuberculosis) (UniProt P9WNS5)
Experiment: crystal structure

Mycobacterium tuberculosis dUTPase lacking the mycobacteria-specific loop A133-S137 (MtDUT^Δloop) (from UniProt P9WNS5 1-154) (enzyme)
stoichiometry N (subunits in the oligomer): 3
